First the molecules themselves.
B1: Hammerhead Ribozyme (parent)
chain: ACCGGAUGUGCUUUCCGGUCUGAUGAGUCCGUGAGGACGAAACAG

Variants of B1 are the subject of the data set. Put plainly: self-cleavage, relative activity (ratio to wild type); higher = more cleavage; co-transcriptional.
As to ACCGGAUGUGCUCUCCGGUCUGAUGAGGCCGUGAGGACGAAACAG [U13C U28G], the self-cleavage worked out at 0.935.

As for ACCGGAUGUGCUCUCCGGUCUGAUGAGCCCGUGAGGACGAAACAG [U13C U28C], the self-cleavage turned out to be 1.29. With ACCGGAUGUGCUCUCCGGUCUGAUGAGACCGUGAGGACGAAACAG [U13C U28A] the figure was 0.739. As for ACCGGAUGUGCUCUCCGGACUGAUGAGUCCGUGAGGACGAAACAG [U13C U19A], the figure is 0.351. Consider ACCGGAUGUGCUCUCCGGCCUGAUGAGUCCGUGAGGACGAAACAG [U13C U19C], for which the self-cleavage is 0.877. As for ACCGGAUGUGCUCUCCGGGCUGAUGAGUCCGUGAGGACGAAACAG [U13C U19G], the figure is 0.311; as for ACCGGAUGUGCUCUCCGGUUUGAUGAGUCCGUGAGGACGAAACAG [U13C C20U], 0.405. With ACCGGAUGUGCUCUCCGGUGUGAUGAGUCCGUGAGGACGAAACAG [U13C C20G] the figure was 0.293; with ACCGGAUGUGCUCUCCGGUAUGAUGAGUCCGUGAGGACGAAACAG [U13C C20A], 0.573; with ACCGGAUGUGCUCUCCGGUCUGAUGAUUCCGUGAGGACGAAACAG [U13C G27U], 0.673. As to ACCGGAUGUGCUCUCCGGUCUGAUGAAUCCGUGAGGACGAAACAG [U13C G27A], the self-cleavage was determined as 1.09. Take ACCGGAUGUGCUCUCCGGUCUGAUGACUCCGUGAGGACGAAACAG [U13C G27C]: the self-cleavage turned out to be 0.985. On to ACCGGAUGUGCUGUCCGGUCUGAUGAGUCCGUGUGGACGAAACAG [U13G A34U], for which the self-cleavage was found to be 0.976.

For ACCGGAUGUGCUGUCCGGUCUGAUGAGUCCGUGCGGACGAAACAG [U13G A34C], the self-cleavage came to 0.79.

Consider ACCGGAUGUGCUGUCCGGUCUGAUGAGUCCGUGGGGACGAAACAG [U13G A34G], for which the self-cleavage was found to be 0.886. Turning to ACCGGAUGUGCUCUCCGGUCUGAUGAGUCCCUGAGGACGAAACAG [U13C G31C], the self-cleavage was 1.13. In the case of ACCGGAUGUGCUCUCCGGUCUGAUGAGUCCAUGAGGACGAAACAG [U13C G31A], the self-cleavage came out at 1.04. For ACCGGAUGUGCUCUCCGGUCUGAUGAGUCCUUGAGGACGAAACAG [U13C G31U], the self-cleavage amounted to 1.22.

As for ACCGGAUGUGCUCUCCGGUCUGAUGAGUCCGUGAAGACGAAACAG [U13C G35A], the self-cleavage was 0.552. As for ACCGGAUGUGCUCUCCGGUCUGAUGAGUCCGUGACGACGAAACAG [U13C G35C], the self-cleavage came out at 0.774. Consider ACCGGAUGUGCUCUCCGGUCUGAUGAGUCCGUGAUGACGAAACAG [U13C G35U], for which the self-cleavage came to 0.744. As for ACCGGAUGUGCUCUCCGGUCUGAUGAGUCAGUGAGGACGAAACAG [U13C C30A], the figure is 1.54; as for ACCGGAUGUGCUCUCCGGUCUGAUGAGUCUGUGAGGACGAAACAG [U13C C30U], 1.24; as for ACCGGAUGUGCUCUCCGGUCUGAUGAGUCGGUGAGGACGAAACAG [U13C C30G], 0.956. As to ACCGGAUGUGCUGUUCGGUCUGAUGAGUCCGUGAGGACGAAACAG [U13G C15U], the self-cleavage was determined as 0.763. ACCGGAUGUGCUGUGCGGUCUGAUGAGUCCGUGAGGACGAAACAG [U13G C15G]: the self-cleavage stood at 0.715. For the variant ACCGGAUGUGCUGUACGGUCUGAUGAGUCCGUGAGGACGAAACAG [U13G C15A], the self-cleavage turned out to be 0.701.

With ACCGGAUGUGCUCUCCGGUCUGAUGAGUCCGAGAGGACGAAACAG [U13C U32A], the self-cleavage is 0.668.

For ACCGGAUGUGCUCUCCGGUCUGAUGAGUCCGGGAGGACGAAACAG [U13C U32G], the self-cleavage is 0.808. As for ACCGGAUGUGCUCUCCGGUCUGAUGAGUCCGCGAGGACGAAACAG [U13C U32C], the self-cleavage is 1.11.

In the case of ACCGGAUGUGCUCUCCAGUCUGAUGAGUCCGUGAGGACGAAACAG [U13C G17A], the self-cleavage was determined as 0.809.

Take ACCGGAUGUGCUCUCCCGUCUGAUGAGUCCGUGAGGACGAAACAG [U13C G17C]: the self-cleavage was 0.573. As for ACCGGAUGUGCUCUCCUGUCUGAUGAGUCCGUGAGGACGAAACAG [U13C G17U], the figure is 0.884; as for ACCGGAUGUGCUCUCCGGUCUGAUGAGUCCGUGAGGACGAAACCG [U13C A44C], 0.491.

Take ACCGGAUGUGCUCUCCGGUCUGAUGAGUCCGUGAGGACGAAACGG [U13C A44G]: the self-cleavage was determined as 1.49. In the case of ACCGGAUGUGCUCUCCGGUCUGAUGAGUCCGUGAGGACGAAACUG [U13C A44U], the self-cleavage came out at 0.923. ACCGGAUGUGCUCUCCGAUCUGAUGAGUCCGUGAGGACGAAACAG [U13C G18A]: the self-cleavage is 0.955. On to ACCGGAUGUGCUCUCCGCUCUGAUGAGUCCGUGAGGACGAAACAG [U13C G18C], for which the self-cleavage was determined as 0.842. For the variant ACCGGAUGUGCUCUCCGUUCUGAUGAGUCCGUGAGGACGAAACAG [U13C G18U], the self-cleavage came out at 0.933. On to ACCGGAUGUGCUCUCCGGUCUGAUGAGUACGUGAGGACGAAACAG [U13C C29A], for which the self-cleavage came to 0.789. As for ACCGGAUGUGCUCUCCGGUCUGAUGAGUGCGUGAGGACGAAACAG [U13C C29G], the self-cleavage is 0.723. As for ACCGGAUGUGCUCUCCGGUCUGAUGAGUUCGUGAGGACGAAACAG [U13C C29U], the figure is 0.819; as for ACCGGAUGUGCUGUCCGGUCUGCUGAGUCCGUGAGGACGAAACAG [U13G A23C], 0.356.

Turning to ACCGGAUGUGCUGUCCGGUCUGUUGAGUCCGUGAGGACGAAACAG [U13G A23U], the self-cleavage worked out at 0.405. In the case of ACCGGAUGUGCUGUCCGGUCUGGUGAGUCCGUGAGGACGAAACAG [U13G A23G], the self-cleavage amounted to 0.368. With ACCGGAUGUGCUCUCCGGUCUGAUGAGUCCGUGAGGAAGAAACAG [U13C C38A], the self-cleavage amounted to 0.601. On to ACCGGAUGUGCUCUCCGGUCUGAUGAGUCCGUGAGGAUGAAACAG [U13C C38U], for which the self-cleavage is 1.11. With ACCGGAUGUGCUCUCCGGUCUGAUGAGUCCGUGAGGAGGAAACAG [U13C C38G], the self-cleavage is 0.458. Regarding ACCGGAUGUGCUCUCCGGUCAGAUGAGUCCGUGAGGACGAAACAG [U13C U21A], the self-cleavage stood at 0.754. Take ACCGGAUGUGCUCUCCGGUCGGAUGAGUCCGUGAGGACGAAACAG [U13C U21G]: the self-cleavage amounted to 0.864. With ACCGGAUGUGCUCUCCGGUCCGAUGAGUCCGUGAGGACGAAACAG [U13C U21C], the self-cleavage came to 1.23.

Turning to ACCGGAUGUGCUCUCCGGUCUGAGGAGUCCGUGAGGACGAAACAG [U13C U24G], the self-cleavage turned out to be 0.837.

ACCGGAUGUGCUCUCCGGUCUGACGAGUCCGUGAGGACGAAACAG [U13C U24C]: the self-cleavage turned out to be 1.31.

Take ACCGGAUGUGCUCUCCGGUCUGAAGAGUCCGUGAGGACGAAACAG [U13C U24A]: the self-cleavage amounted to 1.64. With ACCGGAUGUGCUGUCCGGUCUGAUGAGUCCGUGAGGACGAAACCG [U13G A44C] the figure was 0.567; with ACCGGAUGUGCUGUCCGGUCUGAUGAGUCCGUGAGGACGAAACGG [U13G A44G], 1.7; with ACCGGAUGUGCUGUCCGGUCUGAUGAGUCCGUGAGGACGAAACUG [U13G A44U], 0.644.

The values above are taken from the RNAGym collection of RNA variant scans (doi:10.7554/elife.80360).
